We go through 13 molecules from patent US20170174733A1 (Genentech, published 2017).

The target of assay [1] is T1, LRP6 E1E2 with a C-terminal Avi-tag and His6-tag (human, UniProt O75581 20-630, biotinylated (Avi-tag) where loaded on streptavidin tips; unlabeled where in solution).
T1 construct: domain: E1E2; also called LRP6 receptor fragment E1E2; biotinylated LRP6-E1E2; not shown: C-terminal Avi-tag and His6-tag
T1 sequence: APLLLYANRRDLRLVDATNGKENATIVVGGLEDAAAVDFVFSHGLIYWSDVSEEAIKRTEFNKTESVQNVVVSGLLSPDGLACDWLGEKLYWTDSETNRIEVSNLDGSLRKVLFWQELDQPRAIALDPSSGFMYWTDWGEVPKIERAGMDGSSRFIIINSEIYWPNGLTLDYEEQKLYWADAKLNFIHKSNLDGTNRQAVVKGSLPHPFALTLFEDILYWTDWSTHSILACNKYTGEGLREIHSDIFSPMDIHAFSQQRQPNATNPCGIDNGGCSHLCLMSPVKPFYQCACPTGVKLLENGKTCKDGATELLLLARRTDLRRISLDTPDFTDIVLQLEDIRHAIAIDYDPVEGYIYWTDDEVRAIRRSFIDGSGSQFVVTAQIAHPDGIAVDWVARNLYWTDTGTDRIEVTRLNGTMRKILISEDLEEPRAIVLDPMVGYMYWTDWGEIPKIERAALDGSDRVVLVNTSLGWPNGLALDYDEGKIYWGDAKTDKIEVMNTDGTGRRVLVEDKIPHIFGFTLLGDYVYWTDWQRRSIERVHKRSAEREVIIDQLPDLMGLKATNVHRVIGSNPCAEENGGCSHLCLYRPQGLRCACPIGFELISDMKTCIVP
The assay is described as follows: BLI (OctetRED384): Strep-tagged variant captured by StrepMAB-Immo on AMC tips, LRP6-E1E2 in solution.

Assay [2] concerns the target T2, human VEGF (human, UniProt P15692 27-191). The assay is described as follows: cell-based or functional assay.
The target of assay [3] is T3, VEGF109 (UniProt P15692 214-315, biotinylated where loaded on streptavidin tips).
T3 construct: range 8-109; also called VEGF8-109; biotinylated VEGF109
T3 sequence: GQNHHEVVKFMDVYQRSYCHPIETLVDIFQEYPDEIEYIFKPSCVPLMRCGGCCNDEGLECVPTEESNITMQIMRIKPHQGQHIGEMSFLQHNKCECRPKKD
The assay is described as follows: BLI (OctetRED384): biotinylated VEGF109 on tips.

Assay [4] addresses T2, human VEGF. The assay is described as follows: cell-based or functional assay. The source holds these as a separate data set.
Assay [5] deals with T3, VEGF109.
For assay [6], the target named is T3, VEGF109. The assay is described as follows: BLI (OctetRED384): biotinylated VEGF109 on tips, monomeric variant in solution.
A further assay deals with LRP6 on HEK293S cells (human, UniProt O75581 20-1613). The assay is described as follows: cell-based or functional assay.
For assay [7], the target named is T1, LRP6 E1E2 with a C-terminal Avi-tag and …. Put plainly: BLI (OctetRED384), monomeric variant.
For assay [8] the target is unchanged. Put plainly: BLI on small-scale ExiProgen protein with C-terminal Avi-tag.
Assay [9] addresses T3, VEGF109. Put plainly: BLI (OctetRED384): biotinylated VEGF109 on SA sensor tips.
In another assay the target is BSA (UniProt P02769 25-607). The assay is described as follows: phage ELISA on BSA as control, 2-fold phage dilutions, anti-M13-HRP detection, OD 450 nm.
The target of assay [10] is anti-gD antibody (Genentech, Inc.). Put plainly: phage ELISA on coated anti-gD antibody, 2-fold phage dilutions, anti-M13-HRP detection, OD 450 nm. (In general: An ELISA detects its analyte on a solid surface through an enzyme-linked reagent.)
For another assay, the target named is T4, papain (UniProt P00784 134-345).
T4 construct: Coated on ELISA plates
T4 sequence: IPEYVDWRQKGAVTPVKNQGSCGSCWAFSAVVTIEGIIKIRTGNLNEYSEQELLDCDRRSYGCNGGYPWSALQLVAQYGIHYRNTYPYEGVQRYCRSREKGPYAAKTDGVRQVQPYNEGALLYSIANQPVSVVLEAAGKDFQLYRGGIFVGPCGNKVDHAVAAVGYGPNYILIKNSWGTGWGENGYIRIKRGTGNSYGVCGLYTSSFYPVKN
The assay is described as follows: phage ELISA on coated papain, 2-fold phage dilutions, anti-M13-HRP detection, OD 450 nm.

For assay [11], the target named is T1, LRP6 E1E2 with a C-terminal Avi-tag and …. Put plainly: biolayer interferometry (OctetRED384), fitting view of five traces, LRP6-E1E2. Background: BLI is a label-free optical method that tracks binding on a fibre tip over time.
Protocol: Binding affinities of chagasin variants for the targets LRP6 and VEGF109 were measured using the OctetRED384 (ForteBio). All washes, dilutions and measurements were performed in PBS-based kinetics buffer (ForteBio) with the plate shaking at 1000 rpm. Streptavidin biosensors (SA tips, ForteBio) were equilibrated in kinetics buffer for 5 min and then loaded with either biotinylated LRP6-E1E2 or biotinylated VEGF109 (20 μg/ml) to a density of 2 nm signal difference, followed by a 3 min washing step. […] Dissociation of the chagasin variant-target complex was measured in wells containing kinetics buffer alone for up to 30 min. Sensorgrams with ligand-loaded SA tips going through wells containing only buffer in both association and dissociation measurement were used as reference for background subtraction. Kd, kₐ and kd were determined using the Octet evaluation software v7.0.1.3. using a 1:1 binding model with global fitting. Alternatively, AMC-biosensors (Fortebio) were loaded with StrepMAB-Immo (IBA GmbH) to saturation and subsequently used to capture Strep-tag II containing chagasin variants to saturation. After 5 min of washing in kinetics buffer, binding kinetics to unlabeled LRP6-E1E2 fragment was determined essentially as described above.
Assay [12] has as its target T5, biotinylated VEGF165 (UniProt P15692 27-191).
T5 construct: range 1-165; also called VEGF1-165
The assay is described as follows: competition binding ELISA: biotinylated VEGF165 premixed with the binder, then on coated VEGFR1-Fc (blocked partner), OD 450 nm.

In assay [13] the target is T2, human VEGF. Put plainly: cell-based or functional assay. This is another data set of the same source.
The target in assay [14] is T2, human VEGF. The assay is described as follows: cell-based or functional assay. This is another data set of the same source.
Assay [15] addresses T5, biotinylated VEGF165. Put plainly: competition binding ELISA: blocks biotinylated VEGF165 binding to coated VEGFR1-Fc.
Assay [16] has as its target T3, VEGF109. The assay is described as follows: phage spot ELISA on VEGF with the phage-displayed clone 37, as told by the legend and paragraph 367; the sheet draws sequences only, no signals.

Read-outs that look alike come from different tables or passages of the source.

T2 sequence (P15692 other isoform, or with tags, fused parts or gaps limits assumed): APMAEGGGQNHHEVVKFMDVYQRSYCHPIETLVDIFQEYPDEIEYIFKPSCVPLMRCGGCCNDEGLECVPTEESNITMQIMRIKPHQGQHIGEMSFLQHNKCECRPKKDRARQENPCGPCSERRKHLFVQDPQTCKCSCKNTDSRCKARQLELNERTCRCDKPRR
T5 sequence (P15692 other isoform, or with tags, fused parts or gaps limits assumed): as above
Sequence of BSA (P02769 25-607 limits assumed): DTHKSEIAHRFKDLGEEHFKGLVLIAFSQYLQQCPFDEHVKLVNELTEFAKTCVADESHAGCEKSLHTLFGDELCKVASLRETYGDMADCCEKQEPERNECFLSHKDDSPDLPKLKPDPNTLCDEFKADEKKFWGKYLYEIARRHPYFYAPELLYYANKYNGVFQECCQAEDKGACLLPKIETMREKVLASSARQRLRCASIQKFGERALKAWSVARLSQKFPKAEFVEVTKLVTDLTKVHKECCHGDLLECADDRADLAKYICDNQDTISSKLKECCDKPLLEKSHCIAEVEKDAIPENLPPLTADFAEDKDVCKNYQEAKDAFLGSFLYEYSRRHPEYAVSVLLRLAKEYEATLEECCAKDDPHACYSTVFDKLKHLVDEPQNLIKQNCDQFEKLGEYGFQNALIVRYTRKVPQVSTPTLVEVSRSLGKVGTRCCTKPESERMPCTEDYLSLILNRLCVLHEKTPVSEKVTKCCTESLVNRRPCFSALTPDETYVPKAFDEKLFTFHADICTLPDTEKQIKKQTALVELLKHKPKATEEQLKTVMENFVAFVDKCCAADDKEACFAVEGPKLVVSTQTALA

B1: chagasin LRP6 variant H (designed binder)
chain: MSHKVTKAHNGATLTVAVGELVEIQLPSNPTTGFAWYFEGGTKESPNESMFTVENKYFPYNNIRGLPGFGAGGTEHFHVTVKAAGTHAVNLTYMRPWTGPSHDSERFTVYLKANSAWSHPQFEK
The term Kd denotes the constant that tells how readily two partners part at equilibrium. Read a high Kd as lower affinity. In turn, B1 had a dissociation constant (Kd) in assay [1] of 6 nM.

B2: chagasin LRP6 variant P (designed binder)
chain: MSHKVTKAHNGATLTVAVGELVEIQLPSNPSCGFAWYFEGGTKESPNESMFTVENKYFPDSNEIWYCGAGGTEHFHVTVKAAGTHAVNLTYMSPYYGPTKVEERFTVYLKANSAWSHPQFEK
B2 gave a Kd in assay [1] of 150 nM.

B3: monomeric chagasin VEGF variant L4X6-7 (designed binder)
chain: MSHKVTKAHNGATLTVAVGELVEIQLPSNYFREGFAWYFEGGTKESPNESMFTVENKYFPHVQWGWGAGGTEHFHVTVKAAGTHAVNLTYMAPWVGPSRELERFTVYLKAN
As to B3, the “fold improvement of IC50 over the parental chagasin variant 4” value in the assay with human VEGF [2] came to 13 fold. For the same molecule, in the assay with VEGF109 [3], the “fold improvement of Kd over the parental variant 4” value was found to be 2.5 fold. In addition, the “Inhibitory Activity (IC50, nM) against hVEGF in cell-based assays” value with human VEGF [4] came to 65 nM. Moreover, the equilibrium dissociation constant (Kd) in the assay with VEGF109 [5] is 160 nM; in the assay with VEGF109 [6], 150 nM.

B4: chagasin LRP6 variant S11 (designed binder)
chain: MSHKVTKAHNGATLTVAVGELVEIQLPSNVDGFAWYFEGGTKESPNESMFTVENKYFPSNSTKRGAGGTEHFHVTVKAAGTHAVNLTYMPRVKGAYLVMERFTVYLKAN
notes: also called clone S11
Turning to B4, the “IC50, inhibition of Wnt1 signaling (luciferase reporter, HEK293S cells transfected by WNT1)” value (shortened to “IC50, inhibition of Wnt1 signaling”) with LRP6 on HEK293S cells amounted to 400 nM. For the same molecule, the equilibrium dissociation constant (Kd) in assay [7] was 74 nM.

B5: chagasin LRP6 variant S15 (designed binder)
chain: MSHKVTKAHNGATLTVAVGELVEIQLPSNADGFAWYFEGGTKESPNESMFTVENKYFPSNSTKRGAGGTEHFHVTVKAAGTHAVNLTYMRREKGSTLVVERFTVYLKAN
modifications: biotinylated at the Avi-tag (BirA)
notes: not shown: C-terminal His6-tag and Avi-tag (ExiProgen small-scale expression)
Take B5: the binding result in assay [8] was “binds”.

B6: chagasin VEGF variant 66 (designed binder)
chain: MSHKVTKAHNGATLTVAVGELVEIQLPSNYYYDGFAWYFEGGTKESPNESMFTVENKYFPHYYNLGGRYTGAGGTEHFHVTVKAAGTHAVNLTYMGPWLGPSRVLERFTVYLKAN
notes: also called clone 66; not shown: C-terminal His6-tag and Avi-tag of the ExiProgen small-scale expression
With B6, the binding result with VEGF109 [9] is on record as “binds”.

B7: phage-displayed gD-tagged wild-type chagasin fused to phage coat protein p3 (other)
chain: MADPNRFRGKDLGSLEMSHKVTKAHNGATLTVAVGELVEIQLPSNPTTGFAWYFEGGTKESPNESMFTVENKYFPPDSKLLGAGGTEHFHVTVKAAGTHAVNLTYMRPWTGPSHDSERFTVYLKANGGSGGSGGS
notes: also called chagasin wild-type (wt); p3-fusion display; not shown: phage coat protein g3 (p3)
Regarding B7, the binding result in the assay with BSA is on record as “no binding (tested: 0.5 OD 268 nm)”. Moreover, the “EC50 (read off the curve)” value in assay [10] is approximately 0.01 OD 268 nM; with papain, approximately 0.04 OD 268 nM.

B8: phage-displayed gD-tagged wild-type chagasin fused to phage coat protein p8 (other)
chain: MADPNRFRGKDLGSLEMSHKVTKAHNGATLTVAVGELVEIQLPSNPTTGFAWYFEGGTKESPNESMFTVENKYFPPDSKLLGAGGTEHFHVTVKAAGTHAVNLTYMRPWTGPSHDSERFTVYLKANGGSGGSGGS
notes: also called chagasin wild-type (wt); p8-fusion display; not shown: phage coat protein g8 (p8)
In the case of B8, the binding result with BSA is listed as “no binding (tested: 0.5 OD 268 nm)”. Moreover, the “EC50 (read off the curve)” value in [10] is approximately 0.02 OD 268 nM; with papain it was approximately 0.04 OD 268 nM.

B9: chagasin LRP6 variant H2 (designed binder)
chain: MSHKVTKAHNGATLTVAVGELVEIQLPSNPQTGFAWYFEGGTKESPNESMFTVENKYFPSNKVKGVPGFGAGGTEHFHVTVKAAGTHAVNLTYMGPWTGASQEPERFTVYLKAN
notes: also called clone H2
With B9, the “IC50, inhibition of Wnt1 signaling” value with LRP6 on HEK293S cells worked out at 31 nM. Besides, the Kd in [7] was found to be 0.4 nM; in [11] it was 0.39 nM.

B10: chagasin LRP6 variant H15 (designed binder)
chain: MSHKVTKAHNGATLTVAVGELVEIQLPSNPTTGFAWYFEGGTKESPNESMFTVENKYFPSNKIKGIPGFGAGGTEHFHVTVKAAGTHAVNLTYMRPSTGPSDDSERFTVYLKAN
notes: also called clone H15
Regarding B10, in the assay with LRP6 on HEK293S cells, the “IC50, inhibition of Wnt1 signaling” value was determined as 26 nM. In assay [7], the dissociation constant Kd worked out at 0.25 nM.

B11: GST-fused chagasin VEGF variant 4-66-F6 (designed binder)
chain: MSHKVTKAHNGATLTVAVGELVEIQLPSNYFYDGFAWYFEGGTKESPNESMFTVENKYFPNDPGSRLSGAGGTEHFHVTVKAAGTHAVNLTYMAPWLGPSRVLERFTVYLKAN
notes: also called GST-Variant 4; variant 4 as a GST-fusion protein; not shown: N-terminal His6-GST-tag and TEV cleavage site (pET52b backbone)
One may read the IC50 as the concentration needed to halve the response being measured. Read a high IC50 as a need for much substance. With B11, the IC50 with biotinylated VEGF165 [12] amounted to 14 nM; with biotinylated VEGF165 [15], 13 nM. Also, the “IC50, inhibition of VEGF-dependent KDR phosphorylation on KDR-expressing CHO cells” value in the assay with human VEGF [2] was found to be 72 nM. The “Inhibitory activity (IC50, nM) against VEGF in cell-based assays” value with human VEGF [13] worked out at 28 nM; with human VEGF [14] it was 73 nM.

B12: dimeric chagasin VEGF variant 37 (designed binder)
chain: MSHKVTKAHNGATLTVAVGELVEIQLPSNYFCDGFAWYFEGGTKESPNESMFTVENKYFPNYPGSGVLGAGGTEHFHVTVKAAGTHAVNLTYMAPWFGPSRVLERFTVYLKAN
notes: also called clone 37
As for B12, the binding result in the assay with VEGF109 [16] is given as “binds”.

B13: chagasin LRP6 variant S (designed binder)
chain: MSHKVTKAHNGATLTVAVGELVEIQLPSNPADGFAWYFEGGTKESPNESMFTVENKYFPSNYTKHGAGGTEHFHVTVKAAGTHAVNLTYMPREKGSSLVMERFTVYLKANSAWSHPQFEK
In assay [1], B13 showed an equilibrium dissociation constant (Kd) of 70 nM.
